The chains are these.
B1: KIP-10 Clone 160-1 (antibody, V domains shown)
VH: QSLEESGGDLVKPGASLTLTCTASGFSFSSNYFVCWVRQAPGKGLEWVGCINPGSGRTYSASWAKGRFTISKSSSTTVTLQMTSLTAADTATYFCARDRPGSDDYYMRDLWGPGTLVTVSS
VL: DPVMTQTPASVSEPVGGTVTINCQASESIGSSLAWYQQKPGQPPKLLIYAASTLASGVSSRFKGSGSGTQFTLTISDLECADAATYYCQCSYYLNTYVGNPFGGGTEVVVK
B2: KIP-10 Clone 147-1 (antibody, V domains shown)
VH: QEQLEESGGDLVKPEGSLTLTCTASGFSFSGDYYMCWVRQAPGKGLEWIACIYVGSYIYSFYASWAKGRFTISRTSSTTVTLQMTSLTAADTATYFCARDPFATDSDVVSLWGPGTLVTVSS
VL: AVVLTQTPASVSAAVGGTVTINCQASQSISTVLAWYQQKPGQRPKLLIYWASTLASGVPSRFKGSGSGTQFTLTISGVECDDAATYYCAGYKSYSNDDGAFGGGTEVVVK
B3: KIP-10 Clone 63-2 (antibody, V domains shown)
VH: QQQLEESGGGLVKPGGTLTLTCKASGFSFSSDYDMCWVRQAPGKGLEWIACIYAGSSDNTYYATWAKGRFTISKTSSTTVTLQMTSLTAADTATYFCARDTADINFYFKLWGPGTLVTVSS
VL: DIVMTQTPASVSAAVGGTVTIKCQASESVSRWLAWYQQKPGQPPNLLIYSASTLASGVPSRFRGSGSGTEYTLTISDLECADAATYYCQGGYYSGGETYHNSFGGGTEVVVK
B4: KIP-10 Clone 15-2 (antibody, V domains shown)
VH: QEQLVESGGGLVKPGASLTLTCKASGFSFSVGYDMCWVRQAPGKGLEWIACIDTDSSSRTWNASWAKGRFTISKPSSTTVTLQMTSLTAADTATYFCARNDDTSGWGSKLWGPGTLVTVSS
VL: DVVMTQTPASVSEPVGGTVTIKCQASQTIGSALAWYQQKPGQPPKLLIYTASNLASGVSSRFKGSRSGTEFTLTISDLECADAATYYCQHTFYGTSYVDAFGGGTEVVVK
B5: KIP-10 Clone 148-4 (antibody, V domains shown)
VH: QEQLEESGGDLVKPEGSLTLTCTASGFSFSGSFDVCWVRQAPGKGLEWIACIVVDSSDRTWYASWAKGRFTISKPSSTTVTLQMTSLTAADTATYFCARNDDTSGWGFNLWGPGTLVTVSS
VL: B4 VL with V3T, T28S, Y49W, E70D, H90C, F92Y, T95S, V98I, D99N
B6: KIP-10 Clone 103-2 (antibody, V domains shown)
VH: QSVEESGGRLVTPGTPLTLTCTVSGFSLGSYYMSWVRQAPGKGLEWIGIIYQSGNTDYASWAKGRFTISKTSSTTVDLKMTSLTTEDTATYFCAREGYAGYVGYSYNIWGPGTLVTVSS
VL: AYDMTQTPASVSAAVGGTVSINCQASEDIESYLAWYQQRPGQPPKLLIYSASTLASGVSSRFKGSGSGTQFTLTISDLECADAATYYCQQGASSNDVEEPFGGGTEVVVK
B7: KIP-10 Clone 180-2 (antibody, V domains shown)
VH: QSLEESGGGLVQPGGSLKLSCKASGFIFSDNYYMCWVRQAPGKGLELIACIYGGHIDTTYYASWVSGRFTSSKTSSTTVTLQLTSLTAADTATYFCARRTIYDDNDDYSYALHLWGPGTLVTVSS
VL: ALVMTQTPSSVSEPVGGTVTINCQASQSISNLLAWYQQKPGQPPKLLIYGASNLESGVPSRFKGSGSGTEYTLTISGVECADAATYYCQQGDSSSNLDNTFGGGTEVVVK

Residue numbers refer to the chain shown, from its start.

In the first assay the target is control CAR 2, expressed on T cells. The assay can be described thus: flow cytometry histogram; hybridoma clonal supernatant on control CAR 2-expressing T cells, detected with FITC goat anti-rabbit F(ab')2; fraction of events in the CAR+ gate. In general terms: A flow cytometer gives signals particle by particle.
As to B1, the CAR+ was found to be 0.021.

In turn, B2 came in with a CAR+ of 0.053.

B3 showed a CAR+ of 0.021.

B4 yielded a CAR+ of 0.063.

On to B5, for which the CAR+ was 0.021.

For the molecule B6, the CAR+ is 0.011.

Another assay addresses anti-CLL-1 CAR (chimeric antigen receptor presenting the anti-CLL-1 scFv), expressed on primary human T cells. The assay can be described thus: flow cytometry histogram; hybridoma clonal supernatant on anti-CLL-1 CAR-transduced primary human T cells, detected with FITC goat anti-rabbit F(ab')2; fraction of events in the CAR+ gate.
B7: the CAR+ amounted to 57.7.

B1 registered a CAR+ of 55.6.

With B2, the CAR+ was 57.7.

As to B3, the CAR+ came to 57.8.

As for B4, the CAR+ came to 58.

Molecule B5 gave a CAR+ of 55.8.

Consider B6, for which the CAR+ amounted to 55.9.

The target of a further assay is control CAR3, expressed on T cells. The assay can be described thus: flow cytometry histogram; hybridoma clonal supernatant on control CAR 3-expressing T cells, detected with FITC goat anti-rabbit F(ab')2; fraction of events in the CAR+ gate. The arrangement: unit not given here.
For the molecule B7, the CAR+ turned out to be 0.011.

B1 gave a CAR+ of 0.011.

On to B2, for which the CAR+ came out at 0.011.

On to B4, for which the CAR+ was determined as 0.011.

On to B5, for which the CAR+ stood at 0.011.

Values taken from patent US20220396628A1.
